The results in this text go back to article PMC11107369, “The Plasmodium vivax MSP1P-19 is involved in binding of reticulocytes through interactions with the membrane proteins band3 and CD71” (The Journal of Biological Chemistry, 2024).

In this assay the target is T1, Recombinant CD71-ECD immobilised on the CM5 chip (SPR) (human, UniProt P02786 89-760).
T1 construct: Human transferrin receptor protein 1 (CD71), extracellular domain; source: recombinant
Briefly: SPR; BIAcore S200; CD71-ECD coupled to CM5 chip (EDC/NHS, 10 mM NaAc pH 4.5); analyte PvMSP1P-19 6.25, 12.5, 25, 50 μM at 30 μl/min; 1:1 Langmuir model; apparent KD. Particulars: both partners purified. Background: In SPR one partner is held on a chip, and binding of the other changes the refractive index at the surface.

T1 sequence (P02786 89-760): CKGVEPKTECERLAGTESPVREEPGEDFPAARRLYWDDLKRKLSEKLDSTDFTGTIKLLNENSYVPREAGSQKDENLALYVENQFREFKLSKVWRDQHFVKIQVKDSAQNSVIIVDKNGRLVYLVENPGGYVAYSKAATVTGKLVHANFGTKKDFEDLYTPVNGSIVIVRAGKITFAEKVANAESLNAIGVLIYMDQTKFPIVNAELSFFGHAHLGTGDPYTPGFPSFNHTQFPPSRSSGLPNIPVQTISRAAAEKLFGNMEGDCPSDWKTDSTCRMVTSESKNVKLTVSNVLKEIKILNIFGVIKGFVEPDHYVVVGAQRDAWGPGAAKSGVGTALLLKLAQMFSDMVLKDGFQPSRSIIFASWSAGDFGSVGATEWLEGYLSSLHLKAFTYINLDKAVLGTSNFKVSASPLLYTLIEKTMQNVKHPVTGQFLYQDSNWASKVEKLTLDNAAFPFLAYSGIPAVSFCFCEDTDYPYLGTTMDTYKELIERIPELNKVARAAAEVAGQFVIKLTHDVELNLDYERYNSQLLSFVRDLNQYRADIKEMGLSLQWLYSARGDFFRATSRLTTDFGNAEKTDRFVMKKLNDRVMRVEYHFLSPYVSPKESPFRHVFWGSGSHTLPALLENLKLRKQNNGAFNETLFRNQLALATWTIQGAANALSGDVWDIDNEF

B1: Plasmodium vivax merozoite surface protein 1 paralog, 19-kDa C-terminal region (PvMSP1P-19), Trx-His-Flag-tagged (domain or fragment)
chain: DRVEKNCRNRKCPLNSFCFIQTINEECLCLLNYSMVGEKCILNEQNSCAVKNGGCDLKATCELKKNRVNCICPKGTKPMHEGVVCS
notes: P. vivax merozoite surface protein 1 paralog (PvMSP1P, 1854 aa), PlasmoDB PVX_099975, aa 1749-1834 (two EGF-like domains); Migrates at ~36 kDa; also called Trx-His-PvMSP1P-19; His-MSP1P-19; source: E. coli BL21 (DE3) and SHuffle T7 E. coli, pET32a, soluble, purified by Talen Biotech
For B1, the Kd was found to be 35.5 µM.
